Measurements published in the supplement of paper PMC7877785.
± gives the uncertainty stated by the source.

Test: self-splicing fitness, log relative to wild type (ln ratio); higher = more splicing; Tetrahymena group I intron in knt gene, E. coli kanamycin selection, DiMSum; sequences stand for … in CUCUCU…GGAGGGAAAAGUUAUCAGGCAUGCACCUGGUAGCUAGUCUUUAAACCAAUAGAUUGCAUCGGUUUAAAAGGCAAGACCGUCAAAUUGCGGGAAAGGGGUCAACAGCCGUUCAGUACCAAGUCUCAGGGGAAACUUUGAGAUGGCCUUGCAAAGGGUAUGGUAAUAAGCUGACGGACAUGGUCCUAACCACGCAGCCAAGUCCUAAGUCAACAGAUCUUCUGUUGAUAUGGAUGCAGUUCACAGACUAAAUGUCGGUCGGGGAAGAUGUAUUCUUCUCAUAAGAUAUAGUCGGACCUCUCCUUAAUGGGAGCUAGCGGAUGAAGUGAUGCAACACUGGAGCCGCUGGGAACUAAUUUGUAUGCGAAAGUAUAUUGAUUAGUUUUGGAGUACUCGUGGUCG
Outline: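 The eight P1ex-region nucleotides of an intron in the knt kanamycin-resistance gene on pET-22b(+) were all randomised and the library put into E. coli BL21(DE3). Six replicate transformations were grown overnight at 37°C or 30°C on LB agar with or without 25 μg/mL kanamycin, together with 100 μg/mL carbenicillin, 50 μM IPTG and 0.2% rhamnose. Colonies were pooled and amplicon-sequenced on an Illumina HiSeq 2500. Fitness from DiMSum is the error-weighted combination of wild-type-normalised replicate fold changes, kanamycin over none.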

Sequence	self-splicing fitness (ln) (30 °C)	self-splicing fitness (ln) (37 °C)
GGUCAGCAAUAUUACGAGGC	-3.61 ± 0.3	-2.84 ± 0.43
GGUCAGCAAUAUUACGAUGC	-0.354 ± 0.091	0.43 ± 0.11
GGUCAGCAAUAUUACGCCCU	-0.704 ± 0.14	0.198 ± 0.17
GGUCAGCAAUAUUACGCGAU	-2.41 ± 0.18	
GGUCAGCAAUAUUACGCGCC	0.245 ± 0.39	
GGUCAGCAAUAUUACGCUGC	-1.88 ± 0.25	-3.17 ± 0.47
GGUCAGCAAUAUUACGGAGC	-1.4 ± 0.18	-0.82 ± 0.14
GGUCAGCAAUAUUACGGCGG	-0.828 ± 0.049	-0.274 ± 0.065
GGUCAGCAAUAUUACGGCGU	0.348 ± 0.11	0.0889 ± 0.12
GGUCAGCAAUAUUACGGCUU	-1.18 ± 0.087	-0.0465 ± 0.12
GGUCAGCAAUAUUACGGGGG		-2.15 ± 0.34
GGUCAGCAAUAUUACGGUAG	-2.15 ± 0.18	-0.967 ± 0.19
GGUCAGCAAUAUUACGGUUC	0.308 ± 0.096	-0.214 ± 0.1
GGUCAGCAAUAUUACGUAGU	-0.367 ± 0.064	0.693 ± 0.075
GGUCAGCAAUAUUACGUCAG	-3.99 ± 0.4	-3.23 ± 0.47
GGUCAGCAAUAUUACGUCCG	-0.0947 ± 0.13	-0.124 ± 0.19
GGUCAGCAAUAUUACGUCGA	-0.64 ± 0.098	-0.54 ± 0.1
GGUCAGCAAUAUUACGUCUA	-0.0881 ± 0.073	0.0699 ± 0.078
GGUCAGCAAUAUUACGUGUG	-1.39 ± 0.069	-0.514 ± 0.092
GGUCAGCAAUAUUACGUUCC	-0.328 ± 0.24	-0.643 ± 0.28
GGUCAGCAAUAUUACGUUGA	-3.12 ± 0.27	-1.76 ± 0.25
GGUGAGCAAUAUUACGAAUG	-3.14 ± 0.29	-2.36 ± 0.5
GGUGAGCAAUAUUACGACGC	-0.546 ± 0.19	-0.0795 ± 0.28
GGUGAGCAAUAUUACGAUCC		-0.766 ± 0.35
GGUGAGCAAUAUUACGAUUA		-0.938 ± 0.45

Sequence	self-splicing fitness (ln) (30 °C)	self-splicing fitness (ln) (37 °C)
GGUGAGCAAUAUUACGCGAA	-2.96 ± 0.14	-1.65 ± 0.13
GGUGAGCAAUAUUACGCGAC	-3.49 ± 0.29	-3.12 ± 0.25
GGUGAGCAAUAUUACGCGGU		-1.5 ± 0.42
GGUGAGCAAUAUUACGCUAC	-2.34 ± 0.2	
GGUGAGCAAUAUUACGCUGC	-3.91 ± 0.28	-2.65 ± 0.32
GGUGAGCAAUAUUACGGACG	-0.0602 ± 0.16	0.806 ± 0.32
GGUGAGCAAUAUUACGGCCG	-1.15 ± 0.38	-2.11 ± 0.24
GGUGAGCAAUAUUACGUGAA	-1.76 ± 0.36	-1.27 ± 0.32
GGUGAGCAAUAUUACGUGCG	-0.62 ± 0.12	-0.505 ± 0.18
GGUGAGCAAUAUUACGUGUG	-3.28 ± 0.2	-2.47 ± 0.2
GGUGAGCAAUAUUACGUUAG	-3.01 ± 0.2	-2.83 ± 0.3
GGUGAGCAAUAUUACGUUAU	-3.23 ± 0.2	-1.84 ± 0.19
GGUGAGCAAUAUUACGUUUC	-3.36 ± 0.29	-1.68 ± 0.25
GGUUAGCAAUAUUACGAAUG	-0.2 ± 0.3	-0.491 ± 0.33
GGUUAGCAAUAUUACGAGAG	-2.64 ± 0.44	-2.45 ± 0.39
GGUUAGCAAUAUUACGAGCA	-0.943 ± 0.1	-0.264 ± 0.1
GGUUAGCAAUAUUACGAUGA	-0.915 ± 0.12	-0.286 ± 0.13
GGUUAGCAAUAUUACGAUUG	-1.56 ± 0.19	-1.1 ± 0.21
GGUUAGCAAUAUUACGCCCA	-0.993 ± 0.27	-1.13 ± 0.3
GGUUAGCAAUAUUACGCUAU	-4.15 ± 0.46	-2.72 ± 0.34
GGUUAGCAAUAUUACGCUCU	-2.24 ± 0.18	-0.596 ± 0.17
GGUUAGCAAUAUUACGCUUA	-1.58 ± 0.13	-0.641 ± 0.12
GGUUAGCAAUAUUACGGACU		-1.31 ± 0.23
GGUUAGCAAUAUUACGGAGC	-2.27 ± 0.24	-1.43 ± 0.29
GGUUAGCAAUAUUACGGAGG	-3.02 ± 0.2	-2.78 ± 0.18

Sequence	self-splicing fitness (ln) (30 °C)	self-splicing fitness (ln) (37 °C)
GGUUAGCAAUAUUACGGCAA	0.963 ± 0.39	-0.363 ± 0.27
GGUUAGCAAUAUUACGGCAG	-1.83 ± 0.19	-1.43 ± 0.21
GGUUAGCAAUAUUACGGUAU	-1.55 ± 0.11	-0.531 ± 0.11
GGUUAGCAAUAUUACGGUGU	-2.18 ± 0.11	-0.973 ± 0.15
GGUUAGCAAUAUUACGUAUA	-1.45 ± 0.14	-1.24 ± 0.19
GGUUAGCAAUAUUACGUCAG	-3.16 ± 0.47	
GGUUAGCAAUAUUACGUCUG	-2.1 ± 0.14	-0.405 ± 0.11
GGUUAGCAAUAUUACGUGAU	-2.18 ± 0.19	-1.14 ± 0.2
GUAAAGCAAUAUUACGAUGC	-0.312 ± 0.11	-0.105 ± 0.11
GUAAAGCAAUAUUACGCAAC		-0.263 ± 0.42
GUAAAGCAAUAUUACGCACA	0.186 ± 0.082	0.579 ± 0.11
GUAAAGCAAUAUUACGCCGU	-0.433 ± 0.085	0.561 ± 0.11
GUAAAGCAAUAUUACGCGUG	-1.05 ± 0.076	-0.992 ± 0.08
GUAAAGCAAUAUUACGCUUU	-3.46 ± 0.23	-1.8 ± 0.27
GUAAAGCAAUAUUACGGACA	-0.403 ± 0.085	0.623 ± 0.12
GUAAAGCAAUAUUACGGCAG	-1.5 ± 0.15	-2.25 ± 0.3
GUAAAGCAAUAUUACGGCAU	-0.176 ± 0.067	-0.287 ± 0.078
GUAAAGCAAUAUUACGGGCC	-1.92 ± 0.25	-1.05 ± 0.23
GUAAAGCAAUAUUACGGGCG	-0.457 ± 0.12	-0.386 ± 0.12
GUAAAGCAAUAUUACGUAAG	-1.95 ± 0.1	-1.2 ± 0.13
GUAAAGCAAUAUUACGUCCC	-1.07 ± 0.19	0.449 ± 0.26
GUAAAGCAAUAUUACGUGAG	-2.03 ± 0.084	-0.98 ± 0.1
GUAAAGCAAUAUUACGUUAG	-1.01 ± 0.057	-0.896 ± 0.076
GUAAAGCAAUAUUACGUUCC	-2.91 ± 0.18	0.158 ± 0.14
GUACAGCAAUAUUACGAAGU	-3.32 ± 0.17	-1.67 ± 0.18

Sequence	self-splicing fitness (ln) (30 °C)	self-splicing fitness (ln) (37 °C)
GUACAGCAAUAUUACGAAUC	-2.65 ± 0.35	-1.18 ± 0.18
GUACAGCAAUAUUACGACCG	-2.47 ± 0.19	-0.419 ± 0.14
GUACAGCAAUAUUACGAGUG	-3.17 ± 0.34	-1.25 ± 0.18
GUACAGCAAUAUUACGAUGC	-1.03 ± 0.12	-1.06 ± 0.12
GUACAGCAAUAUUACGCAGU	-4.74 ± 0.31	-3 ± 0.24
GUACAGCAAUAUUACGCCCC	-1.32 ± 0.2	-0.26 ± 0.32
GUACAGCAAUAUUACGCCGG	-3.87 ± 0.39	-2.45 ± 0.24
GUACAGCAAUAUUACGCCGU	-2.95 ± 0.21	-1.06 ± 0.16
GUACAGCAAUAUUACGCGCA	-1.07 ± 0.11	-0.616 ± 0.12
GUACAGCAAUAUUACGCGGC	-1.83 ± 0.34	-2.11 ± 0.36
GUACAGCAAUAUUACGCUUU	-2.99 ± 0.12	-1.19 ± 0.12
GUACAGCAAUAUUACGGCAC	-0.68 ± 0.11	0.0875 ± 0.12
GUACAGCAAUAUUACGGCAG	-4.02 ± 0.2	-2.33 ± 0.17
GUACAGCAAUAUUACGGCUG	-3.82 ± 0.21	-1.38 ± 0.14
GUACAGCAAUAUUACGGUGC	-3.12 ± 0.15	-2.22 ± 0.18
GUACAGCAAUAUUACGGUUA	-0.862 ± 0.058	-0.00855 ± 0.057
GUACAGCAAUAUUACGUACU	-2.77 ± 0.14	-2.79 ± 0.25
GUACAGCAAUAUUACGUAGC	-0.896 ± 0.19	-2.29 ± 0.25
GUACAGCAAUAUUACGUAUC	-2.87 ± 0.16	-1.35 ± 0.28
GUACAGCAAUAUUACGUCCA	-2.12 ± 0.13	-1.23 ± 0.14
GUACAGCAAUAUUACGUCGA	-2.07 ± 0.11	-1.78 ± 0.12
GUACAGCAAUAUUACGUGAA	-3.94 ± 0.13	-1.51 ± 0.11
GUACAGCAAUAUUACGUUAC	-3.89 ± 0.36	-2.27 ± 0.28
